# Results from article PMC4975523.
# Biological target: CBLB (UniProt Q3TTA7)
# Test: anti-CBLB IP, dectin-1 blot
# Details: reference: wild-type Flag-dectin-1; sites Y15
substance,measurement,value
dectin-1 (from UniProt Q6QLQ4) Flag-dectin-1 Y15F,binding against the reference,lost
